Laboratory results as given in patent US20150299255A1 (SUSAVION BIOSCIENCES, published 2015).
Where no end group is shown, it is not given here.

Assays:
receptor NKG2D [1] = molecular target: T1, receptor NKG2D (UniProt P26718 80-216); assay: isothermal microcalorimetry; SVH1C (100 µM) titrated into NKG2D (11 µM monomer)
T1 sequence (looked up): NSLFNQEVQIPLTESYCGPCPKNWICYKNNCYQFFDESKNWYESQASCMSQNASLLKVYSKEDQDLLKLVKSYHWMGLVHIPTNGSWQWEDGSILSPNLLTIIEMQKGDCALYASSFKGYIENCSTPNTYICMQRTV

receptor NKG2D [2] = molecular target: T1, receptor NKG2D; assay: isothermal microcalorimetry; NKG2D concentration entered as monomeric binding sites
[3] = molecular target: T2, lectin MAA from Maackia amurensis (Maackia amurensis); assay: solid-phase competition; fetuin at one-third, equal or 5-fold the molar concentration of peptide; MAA
T2 construct: Plant lectin; peroxidase-conjugated in the solid-phase assays
T2 sequence (P0DKL3 30-278): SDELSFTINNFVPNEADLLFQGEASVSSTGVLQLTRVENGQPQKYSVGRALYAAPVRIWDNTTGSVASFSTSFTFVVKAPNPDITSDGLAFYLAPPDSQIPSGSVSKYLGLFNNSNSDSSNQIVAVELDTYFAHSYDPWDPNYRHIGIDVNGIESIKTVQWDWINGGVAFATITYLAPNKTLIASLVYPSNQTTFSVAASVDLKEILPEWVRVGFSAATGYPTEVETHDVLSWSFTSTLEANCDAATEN

B1: SVH1C ([NPSHPLSGGGGS]4K3-NH2) (peptide)
peptide: NPSHPLSGGGGS
chain: Lys-Lys-Lys-NH2
modifications: also: four copies of chain 1 bound by their C-termini to the four amino groups of the branched tri-lysine core
notes: also called quadravalent SVH1C; lead peptide
Receptor NKG2D [1]
  Ka: 1.7e+06 M⁻¹
  Kd: 600 nM
Receptor NKG2D [2]
  stoichiometry, n: 0.71

B2: fetuin (other, UniProt P12763 19-359, looked up)
chain: IPLDPVAGYKEPACDDPDTEQAALAAVDYINKHLPRGYKHTLNQIDSVKVWPRRPTGEVYDIEIDTLETTCHVLDPTPLANCSVRQQTQHAVEGDCDIHVLKQDGQFSVLFTKCDSSPDSAEDVRKLCPDCPLLAPLNDSRVVHAVEVALATFNAESNGSYLQLVEISRAQFVPLPVSVSVEFAVAATDCIAKEVVDPTKCNLLAEKQYGFCKGSVIQKALGGEDVRVTCTLFQTQPVIPQPQPDGAEAEAPSAVPDAAGPTPSAAGPPVASVVVGPSVVAVPLPLHRAHYDLRHTFSGVASVESSSGEAFHVGKTPIVGQPSIPGGPVRLCPGRIRYFKI
modifications: 12 to 15 oligosaccharides terminating predominantly as Neu5Ac-Gal on three N-linked and three O-linked glycans
notes: acts through its sialylated glycans; also called glycoprotein fetuin; sialylated protein, fetuin
[3]
  percent inhibition of SVH1C binding at a 5-fold molar excess of fetuin: 90%
